Test results reported in patent US20250197482A1 (UNITED STATES OF AMERICA AS REPRESENTED BY THE SECRETARY …, published 2025).

What was measured:
[1] = target: HIV-1 Env of strain WITO.33 (Env-pseudotyped virus) (HIV-1); assay: cell-based or functional assay
CAP256 wk34c80 = CAP256 wk34c80 (HIV-1); assay: cell-based or functional assay

Binder | % neutralization, single point, Env-pseudotyped virus on TZM-bl [1] [%] | % neutralization, single point, Env-pseudotyped virus on TZM-bl (CAP256 wk34c80) [%]
CAP256V2LS-J3-1 (bispecific antibody) heavy chain: not shown light chain (J3 VHH, linker, CAP256V2LS LC): EVQLVESGGGLVQAGGFLRLSCELRGSIFNQYAMAWFRQAPGKEREFVAGMGAVPHYGEFVKGRFTISRDNAKSTVYLQMSSLKPEDTAIYFCARSKSTYISYNSNGYDYWGRGTQVTVSSGGSGGQSVLTQPPSVSAAPGQKVTISCSGNTSNIGNNFVSWYQQRPGRAPQLLIYETDKRPSGIPDRFSASKSGTSGTLAITGLQTGDEADYYCATWAASLSSARVFGTGTQVIVLGQPKVNPTVTLFPPSSEELQANKATLVCLISDFYPGAVTVAWKADSSPVKAGVETTTPSKQSNNKYAASSYLSLTPEQWKSHRSYSCQVTHEGSTVEKTVAPTECS | 3 | 20
CAP256V2LS-10E8-4 (bispecific antibody) heavy chain: not shown light chain (10E8v4 scFv, linker, CAP256V2LS LC): EVRLVESGGGLVKPGGSLRLSCSASGFDFDNAWMTWVRQPPGKGLEWVGRITGPGEGWSVDYAESVKGRFTISRDNTKNTLYLEMNNVRTEDTGYYFCARTGKYYDFWSGYPPGEEYFQDWGQGTLVIVSSGGGGSGGGGSGGGGSSELTQDPAVSVALKQTVTITCRGDSLRSHYASWYQKKPGQAPVLLFYGKNNRPSGIPDRFSGSASGNRASLTITGAQAEDEADYYCSSRDKSGSRLSVFGGGTKLTVDKTHTQSVLTQPPSVSAAPGQKVTISCSGNTSNIGNNFVSWYQQRPGRAPQLLIYETDKRPSGIPDRFSASKSGTSGTLAITGLQTGDEADYYCATWAASLSSARVFGTGTQVIVLGQPKVNPTVTLFPPSSEELQANKATLVCLISDFYPGAVTVAWKADSSPVKAGVETTTPSKQSNNKYAASSYLSLTPEQWKSHRSYSCQVTHEGSTVEKTVAPTECS | 10 | 23
CAP256V2LS-10E8-5 (bispecific antibody) heavy chain: not shown light chain (10E8v4 scFv, linker, CAP256V2LS LC): EVRLVESGGGLVKPGGSLRLSCSASGFDFDNAWMTWVRQPPGKGLEWVGRITGPGEGWSVDYAESVKGRFTISRDNTKNTLYLEMNNVRTEDTGYYFCARTGKYYDFWSGYPPGEEYFQDWGQGTLVIVSSGGGGSGGGGSGGGGSSELTQDPAVSVALKQTVTITCRGDSLRSHYASWYQKKPGQAPVLLFYGKNNRPSGIPDRFSGSASGNRASLTITGAQAEDEADYYCSSRDKSGSRLSVFGGGTKLTVDKTHTGDKTHTQSVLTQPPSVSAAPGQKVTISCSGNTSNIGNNFVSWYQQRPGRAPQLLIYETDKRPSGIPDRFSASKSGTSGTLAITGLQTGDEADYYCATWAASLSSARVFGTGTQVIVLGQPKVNPTVTLFPPSSEELQANKATLVCLISDFYPGAVTVAWKADSSPVKAGVETTTPSKQSNNKYAASSYLSLTPEQWKSHRSYSCQVTHEGSTVEKTVAPTECS | 18 | 100
CAP256V2LS-10E8-6 (bispecific antibody) heavy chain: not shown light chain (10E8v4 scFv, linker, CAP256V2LS LC): EVRLVESGGGLVKPGGSLRLSCSASGFDFDNAWMTWVRQPPGKGLEWVGRITGPGEGWSVDYAESVKGRFTISRDNTKNTLYLEMNNVRTEDTGYYFCARTGKYYDFWSGYPPGEEYFQDWGQGTLVIVSSGGGGSGGGGSGGGGSSELTQDPAVSVALKQTVTITCRGDSLRSHYASWYQKKPGQAPVLLFYGKNNRPSGIPDRFSGSASGNRASLTITGAQAEDEADYYCSSRDKSGSRLSVFGGGTKLTVDKTHTGDKTHTGDKTHTQSVLTQPPSVSAAPGQKVTISCSGNTSNIGNNFVSWYQQRPGRAPQLLIYETDKRPSGIPDRFSASKSGTSGTLAITGLQTGDEADYYCATWAASLSSARVFGTGTQVIVLGQPKVNPTVTLFPPSSEELQANKATLVCLISDFYPGAVTVAWKADSSPVKAGVETTTPSKQSNNKYAASSYLSLTPEQWKSHRSYSCQVTHEGSTVEKTVAPTECS | 0 | 100
CAP256V2LS-VRC01-1 (bispecific antibody) heavy chain: not shown light chain (VRC01 scFv, linker, CAP256V2LS LC): QVQLVQSGGQMKKPGESMRISCRASGYEFIDCTLNWIRLAPGKRPEWMGWLKPRGGAVNYARPLQGRVTMTRDVYSDTAFLELRSLTVDDTAVYFCTRGKNCDYNWDFEHWGRGTPVIVSSGGGGSGGGGSGGGGSLTQSPGTLSLSPGETAIISCRTSQYGSLAWYQQRPGQAPRLVIYSGSTRAAGIPDRFSGSRWGPDYNLTISNLESGDFGVYYCQQYEFFGQGTKVQVGGSGGQSVLTQPPSVSAAPGQKVTISCSGNTSNIGNNFVSWYQQRPGRAPQLLIYETDKRPSGIPDRFSASKSGTSGTLAITGLQTGDEADYYCATWAASLSSARVFGTGTQVIVLGQPKVNPTVTLFPPSSEELQANKATLVCLISDFYPGAVTVAWKADSSPVKAGVETTTPSKQSNNKYAASSYLSLTPEQWKSHRSYSCQVTHEGSTVEKTVAPTECS | 0 | 77
CAP256V2LS-VRC01-2 (bispecific antibody) heavy chain: not shown light chain (VRC01 scFv, linker, CAP256V2LS LC): QVQLVQSGGQMKKPGESMRISCRASGYEFIDCTLNWIRLAPGKRPEWMGWLKPRGGAVNYARPLQGRVTMTRDVYSDTAFLELRSLTVDDTAVYFCTRGKNCDYNWDFEHWGRGTPVIVSSGGGGSGGGGSGGGGSLTQSPGTLSLSPGETAIISCRTSQYGSLAWYQQRPGQAPRLVIYSGSTRAAGIPDRFSGSRWGPDYNLTISNLESGDFGVYYCQQYEFFGQGTKVQVGGSGGGGSGGQSVLTQPPSVSAAPGQKVTISCSGNTSNIGNNFVSWYQQRPGRAPQLLIYETDKRPSGIPDRFSASKSGTSGTLAITGLQTGDEADYYCATWAASLSSARVFGTGTQVIVLGQPKVNPTVTLFPPSSEELQANKATLVCLISDFYPGAVTVAWKADSSPVKAGVETTTPSKQSNNKYAASSYLSLTPEQWKSHRSYSCQVTHEGSTVEKTVAPTECS | 38 | 41
CAP256V2LS-VRC01-3 (bispecific antibody) heavy chain: not shown light chain (VRC01 scFv, linker, CAP256V2LS LC): QVQLVQSGGQMKKPGESMRISCRASGYEFIDCTLNWIRLAPGKRPEWMGWLKPRGGAVNYARPLQGRVTMTRDVYSDTAFLELRSLTVDDTAVYFCTRGKNCDYNWDFEHWGRGTPVIVSSGGGGSGGGGSGGGGSLTQSPGTLSLSPGETAIISCRTSQYGSLAWYQQRPGQAPRLVIYSGSTRAAGIPDRFSGSRWGPDYNLTISNLESGDFGVYYCQQYEFFGQGTKVQVGGSGGGGSGGGGSGGQSVLTQPPSVSAAPGQKVTISCSGNTSNIGNNFVSWYQQRPGRAPQLLIYETDKRPSGIPDRFSASKSGTSGTLAITGLQTGDEADYYCATWAASLSSARVFGTGTQVIVLGQPKVNPTVTLFPPSSEELQANKATLVCLISDFYPGAVTVAWKADSSPVKAGVETTTPSKQSNNKYAASSYLSLTPEQWKSHRSYSCQVTHEGSTVEKTVAPTECS | 0 | 99
CAP256V2LS-VRC01-4 (bispecific antibody) heavy chain: not shown light chain (VRC01 scFv, linker, CAP256V2LS LC): QVQLVQSGGQMKKPGESMRISCRASGYEFIDCTLNWIRLAPGKRPEWMGWLKPRGGAVNYARPLQGRVTMTRDVYSDTAFLELRSLTVDDTAVYFCTRGKNCDYNWDFEHWGRGTPVIVSSGGGGSGGGGSGGGGSLTQSPGTLSLSPGETAIISCRTSQYGSLAWYQQRPGQAPRLVIYSGSTRAAGIPDRFSGSRWGPDYNLTISNLESGDFGVYYCQQYEFFGQGTKVQVDKTHTQSVLTQPPSVSAAPGQKVTISCSGNTSNIGNNFVSWYQQRPGRAPQLLIYETDKRPSGIPDRFSASKSGTSGTLAITGLQTGDEADYYCATWAASLSSARVFGTGTQVIVLGQPKVNPTVTLFPPSSEELQANKATLVCLISDFYPGAVTVAWKADSSPVKAGVETTTPSKQSNNKYAASSYLSLTPEQWKSHRSYSCQVTHEGSTVEKTVAPTECS | 0 | 98
CAP256V2LS-VRC01-5 (bispecific antibody) heavy chain: not shown light chain (VRC01 scFv, linker, CAP256V2LS LC): QVQLVQSGGQMKKPGESMRISCRASGYEFIDCTLNWIRLAPGKRPEWMGWLKPRGGAVNYARPLQGRVTMTRDVYSDTAFLELRSLTVDDTAVYFCTRGKNCDYNWDFEHWGRGTPVIVSSGGGGSGGGGSGGGGSLTQSPGTLSLSPGETAIISCRTSQYGSLAWYQQRPGQAPRLVIYSGSTRAAGIPDRFSGSRWGPDYNLTISNLESGDFGVYYCQQYEFFGQGTKVQVDKTHTDKTHTQSVLTQPPSVSAAPGQKVTISCSGNTSNIGNNFVSWYQQRPGRAPQLLIYETDKRPSGIPDRFSASKSGTSGTLAITGLQTGDEADYYCATWAASLSSARVFGTGTQVIVLGQPKVNPTVTLFPPSSEELQANKATLVCLISDFYPGAVTVAWKADSSPVKAGVETTTPSKQSNNKYAASSYLSLTPEQWKSHRSYSCQVTHEGSTVEKTVAPTECS | 0 | 67
CAP256V2LS-VRC01-6 (bispecific antibody) heavy chain: not shown light chain (VRC01 scFv, linker, CAP256V2LS LC): QVQLVQSGGQMKKPGESMRISCRASGYEFIDCTLNWIRLAPGKRPEWMGWLKPRGGAVNYARPLQGRVTMTRDVYSDTAFLELRSLTVDDTAVYFCTRGKNCDYNWDFEHWGRGTPVIVSSGGGGSGGGGSGGGGSLTQSPGTLSLSPGETAIISCRTSQYGSLAWYQQRPGQAPRLVIYSGSTRAAGIPDRFSGSRWGPDYNLTISNLESGDFGVYYCQQYEFFGQGTKVQVDKTHTDKTHTDKTHTQSVLTQPPSVSAAPGQKVTISCSGNTSNIGNNFVSWYQQRPGRAPQLLIYETDKRPSGIPDRFSASKSGTSGTLAITGLQTGDEADYYCATWAASLSSARVFGTGTQVIVLGQPKVNPTVTLFPPSSEELQANKATLVCLISDFYPGAVTVAWKADSSPVKAGVETTTPSKQSNNKYAASSYLSLTPEQWKSHRSYSCQVTHEGSTVEKTVAPTECS | 0 | 98
CAP256V2LS (antibody, V domains shown) VH: QVQLVESGGGVVQPGTSLRLSCAASQFRFDGYGMHWVRQAPGKGLEWVASISHDGIKKYHAEKVWGRFTISRDNSKNTLYLQMNSLRPEDTALYYCAKDLREDECEEWWSDYYDFGAQLPCAKSRGGLVGIADNWGQGTMVTVSS VL: QSVLTQPPSVSAAPGQKVTISCSGNTSNIGNNFVSWYQQRPGRAPQLLIYETDKRPSGIPDRFSASKSGTSGTLAITGLQTGDEADYYCATWAASLSSARVFGTGTQVIVLG | 0 | 100
CAP256V2LS-J3-4 (bispecific antibody) heavy chain: not shown light chain (J3 VHH, linker, CAP256V2LS LC): EVQLVESGGGLVQAGGFLRLSCELRGSIFNQYAMAWFRQAPGKEREFVAGMGAVPHYGEFVKGRFTISRDNAKSTVYLQMSSLKPEDTAIYFCARSKSTYISYNSNGYDYWGRGTQVTVSSDKTHTQSVLTQPPSVSAAPGQKVTISCSGNTSNIGNNFVSWYQQRPGRAPQLLIYETDKRPSGIPDRFSASKSGTSGTLAITGLQTGDEADYYCATWAASLSSARVFGTGTQVIVLGQPKVNPTVTLFPPSSEELQANKATLVCLISDFYPGAVTVAWKADSSPVKAGVETTTPSKQSNNKYAASSYLSLTPEQWKSHRSYSCQVTHEGSTVEKTVAPTECS | 86 | 100
